Residue numbers refer to the chain shown, from its start. In names and notes the source's numbering stands. Blank lines part the entries; values can stand above or below the binder they belong to.
Tests used:
6xHis-tagged cyPD-L1 [1] = molecular target: T1, 6xHis-tagged cyPD-L1 (cynomolgus monkey, UniProt Q9NZQ7 19-238 (human entry)); assay: ELISA, plate-coated 6xHis cyPD-L1, A450
T1 construct: The assay text says only '6xHis-tagged cyPD-L1'; also called cynomolgus PD-L1; not shown: 6xHis tag
Procedure: (§1) Hybridoma supernatants were tested for binding to huPD-L1, cyPD-L1, and muPD-L1 by ELISA. Briefly, 30 μL 6xHis-tagged huPD-L1, cyPD-L1, or muPD-L1 (1 μg/mL in PBS) were immobilized in wells of a 96-well assay plate overnight at 4° C. After washing and blocking steps, 30 μL of antibody supernatant were added to the plate and incubated at room temperature for 1 hr. Bound human antibody was detected using horseradish peroxidase (HRP)-conjugated goat anti-human Fc (Invitrogen Cat. No. 109-035-097; diluted 1:5000) or goat anti-mouse Fc HRP (Invitrogen Cat. No. 115-035-071) as a control. Bound antibody was detected with 1-Step Ultra™ TMB-ELISA Substrate (ThermoFisher Scientific Cat. No. 34029). When the reaction was complete the reaction was stopped, and the plate was read at 450 nm.
(§2) Anti-PD-L1 antibodies, described in Example 1A and manufactured substantially as described in Example 1B, were tested for to huPD-L1 and cyPD-L1 by ELISA substantially as described in Example 1A, using 12 dilutions of antibody ranging from 1 ng/ml to 3 mg/mL.

6xHis-tagged huPD-L1 [2] = molecular target: T2, 6xHis-tagged huPD-L1 (human, UniProt Q9NZQ7 19-238); assay: ELISA, plate-coated 6xHis huPD-L1, A450
T2 construct: also called human PD-L1 (RD Systems 9049-B7); extracellular domain of human PD-L1 fused to a His tag; not shown: 6xHis tag
Procedure: as §1, §2

6xHis-tagged huPD-L1 [3] = molecular target: T2, 6xHis-tagged huPD-L1; assay: ELISA, plate-coated 6xHis huPD-L1, OD 450 nm
Procedure: as §1

[4] = molecular target: T3, human PD-L1 expressed on cells (human, UniProt Q9NZQ7 19-290); assay: cell-based or functional assay
[5] = molecular target: T4, PD-L1-His (Acro Cat PDL-H5229) (human, UniProt Q9NZQ7 19-238); assay: SPR (Biacore 4000) as in Example 3, conjugate captured, PD-L1-His analyte, 25° C.
T4 construct: also called human PD-L1 (SPR analyte); not shown: His tag
Procedure: (§3) The binding affinities of the generated antibodies to human PD-L1 were determined by surface plasmon resonance. […] PD-L1-His (Acro Cat PDL-H5229) was tested for binding in a 3-fold titration series up to 100 nM. Data were collected in HBS-P (pH 7.4) at 37° C. and 25° C.
(§4) The binding affinities of the generated anti-PD-L1 conjugates were determined by surface plasmon resonance, as described in Example 3.

6xHis-tagged cyPD-L1 [6] = molecular target: T1, 6xHis-tagged cyPD-L1; assay: ELISA, plate-coated 6xHis cyPD-L1, OD 450 nm
Procedure: as §1

[7] = molecular target: T3, human PD-L1 expressed on cells; assay: flow cytometry, PD-L1-expressing CHO cells, MFI (FITC)
Procedure: Wild-type (wt) Chinese hamster ovary (CHO) cells (ATCC) and CHO cells engineered to express huPD-L1 (BPS Bioscience) were seeded at 200,000 cells in 50 μL FACS buffer (PBS containing 1% FBS and 5 mM EDTA) per well of a 96-well plate. Cell viability was assessed by adding 50 μL 2×Zombie Violet (BioLegend). Dead cell controls were also prepared and 2×Zombie violet was added. After incubating 20-30 minutes at room temperature, protected from light, 150 μL FACS buffer were added to each well. The plates were centrifuged, and the supernatant was aspirated. […] The plates were incubated 30 minutes on ice, protected from light. 150 μL FACS buffer were then added to each well and the plate was centrifuged. The supernatant was removed and the cells were washed three times in 200 μL FACS buffer. […] The cells were incubated 30 minutes on ice, protected from light. 150 μL FACS buffer were then added to each well and the plate was centrifuged. Supernatant was removed and the cells were washed twice with 200 μL FACS buffer. The cells were then resuspended in FACS buffer and analyzed by CytoFLEX using the appropriate channels. After gating for whole, single, live cells, the MFI in the APC channel (or FITC channel for human control samples) was normalized to the signal from hybridoma media alone (or isotype control for human control). MFI fold over media alone was determined for each clone supernatant tested.

[8] = molecular target: T4, PD-L1-His (Acro Cat PDL-H5229); assay: SPR (Biacore 4000) as in Example 3, conjugate captured, PD-L1-His analyte, 37° C.
Procedure: as §3, §4

[9] = molecular target: T3, human PD-L1 expressed on cells; assay: cell-based or functional assay; remark: listed apart in the source

T3 sequence (Q9NZQ7 19-290): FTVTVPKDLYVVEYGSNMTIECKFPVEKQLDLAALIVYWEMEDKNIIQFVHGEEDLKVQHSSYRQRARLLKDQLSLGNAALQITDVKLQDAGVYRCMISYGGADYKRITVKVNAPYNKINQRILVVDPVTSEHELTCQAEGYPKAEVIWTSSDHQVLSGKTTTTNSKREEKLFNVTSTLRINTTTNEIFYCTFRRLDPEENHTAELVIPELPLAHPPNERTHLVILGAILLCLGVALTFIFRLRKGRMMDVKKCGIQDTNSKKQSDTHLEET
T2 sequence (Q9NZQ7 19-238): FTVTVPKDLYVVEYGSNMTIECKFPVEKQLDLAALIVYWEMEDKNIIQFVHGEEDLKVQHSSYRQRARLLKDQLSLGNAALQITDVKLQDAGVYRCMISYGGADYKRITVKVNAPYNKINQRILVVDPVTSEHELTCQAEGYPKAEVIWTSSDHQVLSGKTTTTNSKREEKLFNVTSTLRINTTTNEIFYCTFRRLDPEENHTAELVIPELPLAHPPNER
T4 sequence (Q9NZQ7 19-238 limits assumed): as the sequence (Q9NZQ7 19-238) above
T1 sequence (Q9NZQ7 other isoform, or with tags, fused parts or gaps): as the sequence (Q9NZQ7 19-238) above, with A33T, A34S, S62N, R68Q, Q82R, F173L, T185A, T192I, H215L counted along it

- Absolute IC50 (6xHis-tagged cyPD-L1 [1]): 0.0569 µg/mL
- Absolute IC50 (6xHis-tagged huPD-L1 [2]): 0.0498 µg/mL
B1: 3B1 (antibody, V domains shown)
VH: QIQLVQSGPELKKPGETVKISCKASGYDFTNYGMNWVKQAPGKGLKWMGYINTYTGEPAYADDFKGRFAFSLETSARTAYLRINNLKNEDTATYFCATRAYYGHYLAYWGQGTLVTVSA
VL: DVLMTQTPLSLPVSLGDQASISCRSSQRIVHSNGNTYLEWYLQKPGQSPKLLIYKVSNRFSGVPDRFSGSGSGTDFTLKISRVEAEDLGVYYCFQGSHVPYTFGGGTKLEIK

- Absolute IC50 (6xHis-tagged cyPD-L1 [1]): 0.325 µg/mL
- binding result (6xHis-tagged huPD-L1 [2]): binds
B2: 3B5 (antibody, V domains shown)
VH: B1 VH
VL: QIVLTQSPAIMSASPGEKVTITCSASSSVSYMHWFQQKPGTSPKLWIYSTSNLASGVPARFSGSGSGTSYSLTISRMEAEDAATYYCQQRSSYPFTFGSGTKLEIK

- Absolute IC50 (6xHis-tagged cyPD-L1 [1]): 0.246 µg/mL
- Absolute IC50 (6xHis-tagged huPD-L1 [2]): 0.33 µg/mL
B3: 3B6 (antibody, V domains shown)
VH: EVKLVESGGGLVQPGGSLRLSCGTSGFTFSDFYVEWVRQPPGKRLEWIAASRNKVNDYTTEYSESVKGRFIVSRDTSQNILYLQMNALRAEDSAIYYCARNVPWDGWYFDVWGAGTAVTVSS
VL: DIVMTQSQKFMSTSVGDRVSITCKASQNVRTAVAWFQQKPGQSPKALIYLASTRHTGVPDRFTGSGSGTDFTLTISNVQSEDLADYFCLQHWNYPRTFGGGTKLEIK

- EC50 (6xHis-tagged huPD-L1 [3]): 0.189 µg/mL
- Kd [5]: 16 nM
- koff [5]: 0.0056 s⁻¹
- kon [5]: 350000 M⁻¹ s⁻¹
- EC50 (6xHis-tagged cyPD-L1 [6]): 0.193 µg/mL
- EC50 [7]: 0.133 µg/mL
- Kd [8]: 23 nM
- koff [8]: 0.011 s⁻¹
- kon [8]: 470000 M⁻¹ s⁻¹
- EC50 of luminescence (RLU), PD-1:PD-L1 Blockade Bioassay (PD-L1 aAPC/CHO-K1 cells with PD-1 Effector Jurkat NFAT-luciferase cells) [9]: 0.855 µg/mL
B4: 1P4-IR700 (antibody, V domains shown)
VH: QVQLVESGGGVVQPGRSLRLSCAASGFTFSNYGMHWVRQAPGKGLEWVSLILYDGSNKYYADSVKGRFTISRDNSKNTLYLQMNSLRAEDTAVYYCARDRVWLDVWGKGTTVTVSS
VL: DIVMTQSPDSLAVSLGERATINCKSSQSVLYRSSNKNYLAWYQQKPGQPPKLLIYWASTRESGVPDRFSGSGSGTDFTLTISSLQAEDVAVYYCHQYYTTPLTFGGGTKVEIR
modifications: IRDye 700DX (IR700) attached via NHS ester; sites not stated; IRDye 700DX (IR700) attached via NHS ester; sites not stated; DAR 2.9 per antibody
notes: also called 1P4-IR700 conjugate; anti-PD-L1-IR700 conjugate
- EC50 of photoimmunotherapy-induced killing of A431 cells (Cell Tox Green, 128 J/cm^2) [4]: 0.103 µg/mL

- EC50 [7]: 0.0455 µg/mL
B5: 1P4 with effector knockout (EKO) mutations L234F/L235E/P331S (antibody, V domains shown)
VH: B4 VH
VL: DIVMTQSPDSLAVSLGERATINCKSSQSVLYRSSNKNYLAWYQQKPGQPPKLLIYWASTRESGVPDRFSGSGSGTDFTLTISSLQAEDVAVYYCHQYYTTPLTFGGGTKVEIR
notes: Same variable regions as 1P4; also called 1P4-EKO; 1P4 (L234F/L235E/P331S)

- EC50 [7]: 0.145 µg/mL
B6: 1P4-EKO-IR700 conjugate (antibody, V domains shown)
VH: B4 VH
VL: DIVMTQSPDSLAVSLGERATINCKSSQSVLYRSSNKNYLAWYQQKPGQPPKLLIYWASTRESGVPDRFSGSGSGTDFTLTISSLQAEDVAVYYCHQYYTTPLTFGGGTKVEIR
modifications: IRDye 700DX (IR700) attached via NHS ester; sites not stated; IRDye 700DX (IR700) attached via NHS ester; sites not stated; DAR 2.7 per antibody
notes: also called 1P4-EKO (conjugate); anti-PD-L1-IR700 conjugate with effector knock-out Fc region

- Absolute IC50 (6xHis-tagged cyPD-L1 [1]): 0.559 µg/mL
- Absolute IC50 (6xHis-tagged huPD-L1 [2]): 0.428 µg/mL
B7: 2M1 (antibody, V domains shown)
VH: EVQLVESGGGLVKPGGSLRLSCAASGFTFSSYTMNWVRQAPGKGLEWVSSITSSTSYIYYADSVKGRFTISRDNAKNSLYLQMNSLRAEDTSVYYCVRDWSIAARGAWFDPWGQGTLVTVSS
VL: DIQMTQSPSSVSASVGDRVTITCRASQGIGSWLAWYQQKPGKAPKFLIYAASSLQGGVPSRFSGSGSGTDFTLTISSLQPEDFATYYCQQANSFPLTFGGGTKVEIK

- Absolute IC50 (6xHis-tagged cyPD-L1 [1]): 0.672 µg/mL
- Absolute IC50 (6xHis-tagged huPD-L1 [2]): 0.788 µg/mL
B8: 2M3 (antibody, V domains shown)
VH: EVQLVESGGGFVQTGGSLRLSCAASGFNFRSYDMHWVRQVIGKGLEWVSGIGPGGDTYYPGSVKGRFTISRENAKNSLYLQMNSLRAGDTAVYYCAREQFEGHYFDYWGQGTLVTVSS
VL: B7 VL with T20N, G30S, G41W, F46L, A50T, G56S, L96I, G100Q, K103R, V104L

- EC50 [7]: 0.0186 µg/mL
B9: 1P9 with effector knockout mutations L234F/L235E/P331S (antibody, V domains shown)
VH: EVQLVESGGGLVQPGGSLRLSCAASGFTFSTYWMSWVRQAPGKGLEWVANIKQDGGERYYVDSVKGRFTISRDNAKSSLYLQMNSLRAEDTALYYCARLRLYSDYEDYWGQGTLVTVSS
VL: B7 VL with G30S, F46L, A50S, A51V, G56S, F83S, F94L, L96P
notes: Same variable regions as 1P9; also called 1P9-EKO; 1P9 (L234F/L235E/P331S)

- EC50 [7]: 0.0174 µg/mL
B10: 1P9-EKO-IR700 conjugate (antibody, V domains shown)
VH: B9 VH
VL: B7 VL with G30S, F46L, A50S, A51V, G56S, F83S, F94L, L96P
modifications: IRDye 700DX (IR700) attached via NHS ester; sites not stated; IRDye 700DX (IR700) attached via NHS ester; sites not stated; DAR 2.5 per antibody
notes: also called 1P9-EKO (conjugate); anti-PD-L1-IR700 conjugate with effector knock-out Fc region

- Absolute IC50 (6xHis-tagged cyPD-L1 [1]): 0.167 µg/mL
- Absolute IC50 (6xHis-tagged huPD-L1 [2]): 0.0838 µg/mL
B11: 2M2 (antibody, V domains shown)
VH: QVQLVQSGAEVKKPGASVKVSCKASGYTFTNYGISWVRQAPGQGLEWMGWISAYNGHTNYAQKVQGRVTMTTDTSTSTAFMELRSLRSDDSAVYYCARGTSGDYWGQGTLVTVSS
VL: not shown

- Absolute IC50 (6xHis-tagged cyPD-L1 [1]): 0.341 µg/mL
- Absolute IC50 (6xHis-tagged huPD-L1 [2]): 0.225 µg/mL
B12: 3B2 (antibody, V domains shown)
VH: EVQLQESGPSLVKPSQTLSLTCSVTGDSITSGYWNWIRKFPGNKLEYMGYISYTGSTYYNPSLKSRISITRDTSKNQYYLQLDSVTTEDTATYYCARKGGWLLPFAYWGQGTLVTVSA
VL: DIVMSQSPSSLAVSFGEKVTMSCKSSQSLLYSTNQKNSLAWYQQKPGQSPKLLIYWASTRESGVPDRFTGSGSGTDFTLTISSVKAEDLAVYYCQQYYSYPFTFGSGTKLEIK

- Absolute IC50 (6xHis-tagged cyPD-L1 [1]): 0.106 µg/mL
- Absolute IC50 (6xHis-tagged huPD-L1 [2]): 0.152 µg/mL
B13: 3B4 (antibody, V domains shown)
VH: B12 VH with Y47S, I67L, Y78F, D83N, R97S, K98G, G99L, G100L, L103A, P104W
VL: DIVMSQSPSSLAVSVGEKVTMSCKSSQSLLYSSNQKNSLAWYQQKPGQSPKLLIYWASTRESGVPDRFTGSGSGTDFTLTISSVRAEDLAVYYCQQYYGYPFTFGGGTKLEIK

- Absolute IC50 (6xHis-tagged cyPD-L1 [1]): 0.234 µg/mL
- Absolute IC50 (6xHis-tagged huPD-L1 [2]): 0.788 µg/mL
B14: 2M5 (antibody, V domains shown)
VH: EVQLVESGGGLVKPGGSLRVSCAASGFTLSSYSMNWVRQAPGKGLEWVSSISSSSSYIYYADSVKGRFTISRDNAKNLLYLQMNSLRAEDTAVYYCAREGGAARPSWFDPWGQGTLVTVSS
VL: QAVVTQESALTTSPGETVTLTCRSSTGAVTTSNYANWVQEKPDHLFTGLIGGTNNRAPGVPARFSGSLIGDKAALTITGAQTEDEAIYFCALWYRNHWVFGGGTKLTVL

— patent US20250145716A1 (RAKUTEN MEDICAL, published 2025)
